Source: PMC3287177

Key:
Experiment in all cases: EMSA
Lin28 39-112 (CSD) = molecular target: T1, Lin28 39-112 (CSD) (Mus musculus, UniProt Q8K3Y3 39-112)
T1 sequence: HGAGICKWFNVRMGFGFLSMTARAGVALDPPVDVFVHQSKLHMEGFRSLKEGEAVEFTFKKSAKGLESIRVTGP

[1] = molecular target: T2, Lin28 119-180 (NCp7-like domain) (Mus musculus, UniProt Q8K3Y3 119-180)
T2 sequence: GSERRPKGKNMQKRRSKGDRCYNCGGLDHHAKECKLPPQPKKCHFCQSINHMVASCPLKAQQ

Lin28 1-209 = molecular target: T3, Lin28 1-209 (Mus musculus, UniProt Q8K3Y3 1-209)
T3 sequence: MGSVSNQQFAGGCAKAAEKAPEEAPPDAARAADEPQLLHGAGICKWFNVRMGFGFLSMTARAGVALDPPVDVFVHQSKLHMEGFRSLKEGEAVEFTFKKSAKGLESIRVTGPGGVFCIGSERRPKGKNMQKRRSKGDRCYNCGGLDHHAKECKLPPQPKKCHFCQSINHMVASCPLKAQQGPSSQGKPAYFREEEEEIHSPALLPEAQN

B1: pre-let-7g (structured_RNA)
RNA: UGAGGUAGUAGUUUGUACAGUUUGAGGGUCUAUGAUACCACCCGGUACAGGAGAUAACUGUACAGGCCACUGCCUUGCC
Q: For B1, which Kd (Lin28 39-112 (CSD)) is on record?
A: 41 ± 10 nM

Q: What about the Kd [1] of the same binder?
A: 0.6 ± 0.1 nM

Q: What about the Kd (Lin28 1-209) of the same binder?
A: 0.15 ± 0.04 nM
